{
  "source": "paper PMC4975481",
  "about": "“Importance of Hypervariable Region 2 for Stability and Affinity of a Shark Single-Domain Antibody Specific for Ebola Virus Nucleoprotein” (PLoS ONE, 2016)",
  "binders": {"B1": {"name": "shark096 (VHH)", "VHH": "RVDQTPRSVTKETGESLTINCVLRDASYAVGSTCWYRKKSGSTNEESISKGGRYVETVNSGSKSFSLRINDLTVEDGGTYRCGVSTYNWCGVRGLGCVHGACGDGTAVTVN", "notes": "also called unfused sdAb portion of DSTL096; parental sdAb"}},
  "target": "T1, Ebola virus Viral Protein 40 (Ebola virus (Zaire ebolavirus), strain …, UniProt Q05128)",
  "T1 construct": "also called VP40; VP 40; source: bought: IBT Bioservices",
  "T1 sequence (Q05128 whole entry)": "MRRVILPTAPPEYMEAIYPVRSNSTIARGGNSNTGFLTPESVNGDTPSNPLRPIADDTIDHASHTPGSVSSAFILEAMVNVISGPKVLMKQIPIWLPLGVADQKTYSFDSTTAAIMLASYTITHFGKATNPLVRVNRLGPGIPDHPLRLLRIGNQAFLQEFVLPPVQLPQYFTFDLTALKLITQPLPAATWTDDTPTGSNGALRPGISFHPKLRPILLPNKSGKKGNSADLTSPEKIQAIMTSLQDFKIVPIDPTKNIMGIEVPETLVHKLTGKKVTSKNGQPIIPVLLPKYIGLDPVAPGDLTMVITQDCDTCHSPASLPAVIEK",
  "test": "SPR",
  "conditions": "both partners purified",
  "data": [
    {"binder": "B1", "values": [
      {"measurement": "binding result", "result": "no binding"}
    ]}
  ]
}
